From patent US20170247475A1 (Boehringer Ingelheim, published 2017)
Read-outs that look alike come from different tables or passages of the source.

T1: hAng2
T1 construct: also called human Ang2
T1 chain: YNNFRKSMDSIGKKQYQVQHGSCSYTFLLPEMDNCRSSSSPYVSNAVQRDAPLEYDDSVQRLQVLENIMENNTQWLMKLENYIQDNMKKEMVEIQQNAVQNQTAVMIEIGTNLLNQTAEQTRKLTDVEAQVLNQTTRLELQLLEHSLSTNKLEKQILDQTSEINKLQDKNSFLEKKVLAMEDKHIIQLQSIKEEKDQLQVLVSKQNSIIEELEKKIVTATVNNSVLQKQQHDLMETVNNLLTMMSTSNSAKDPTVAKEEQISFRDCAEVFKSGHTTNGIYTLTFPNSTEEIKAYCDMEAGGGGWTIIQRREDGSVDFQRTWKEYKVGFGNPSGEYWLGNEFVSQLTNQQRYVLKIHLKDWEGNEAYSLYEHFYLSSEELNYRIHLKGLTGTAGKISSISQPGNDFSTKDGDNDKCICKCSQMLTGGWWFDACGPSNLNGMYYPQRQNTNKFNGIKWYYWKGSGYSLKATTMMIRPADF

T2: mAng2
T2 construct: also called mouse Ang2
T2 chain: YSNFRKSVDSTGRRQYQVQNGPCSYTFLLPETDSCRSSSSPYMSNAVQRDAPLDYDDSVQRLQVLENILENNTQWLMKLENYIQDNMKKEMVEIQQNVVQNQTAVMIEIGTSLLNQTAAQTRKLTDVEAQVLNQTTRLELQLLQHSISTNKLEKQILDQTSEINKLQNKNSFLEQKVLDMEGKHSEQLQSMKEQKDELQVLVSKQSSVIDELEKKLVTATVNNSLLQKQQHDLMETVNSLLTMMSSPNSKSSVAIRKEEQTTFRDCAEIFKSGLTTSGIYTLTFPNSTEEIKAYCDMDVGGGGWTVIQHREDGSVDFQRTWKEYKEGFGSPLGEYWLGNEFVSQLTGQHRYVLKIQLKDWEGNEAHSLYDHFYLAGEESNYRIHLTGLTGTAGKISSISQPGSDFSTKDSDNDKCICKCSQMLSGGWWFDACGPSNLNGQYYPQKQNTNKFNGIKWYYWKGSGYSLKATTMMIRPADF

T3: human PIGF (human, UniProt P49763-2 21-149, limits assumed)
T3 construct: also called hPIGF; PLGF
T3 sequence (looked up): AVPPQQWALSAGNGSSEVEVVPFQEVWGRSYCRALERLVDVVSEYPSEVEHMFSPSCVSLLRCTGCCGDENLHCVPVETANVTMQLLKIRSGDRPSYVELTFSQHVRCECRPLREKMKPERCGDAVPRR

T4: human VEGF-B (human, UniProt P49765-2 22-188, limits assumed)
T4 construct: also called hVEGF-B
T4 sequence (looked up): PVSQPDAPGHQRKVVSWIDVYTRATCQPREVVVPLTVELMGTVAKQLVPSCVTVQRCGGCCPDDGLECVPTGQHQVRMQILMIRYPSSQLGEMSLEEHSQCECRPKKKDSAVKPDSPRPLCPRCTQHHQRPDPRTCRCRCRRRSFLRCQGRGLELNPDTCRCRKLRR

T5: human VEGF-C (human, UniProt P49767 103-227)
T5 construct: also called hVEGF-C
T5 sequence (looked up): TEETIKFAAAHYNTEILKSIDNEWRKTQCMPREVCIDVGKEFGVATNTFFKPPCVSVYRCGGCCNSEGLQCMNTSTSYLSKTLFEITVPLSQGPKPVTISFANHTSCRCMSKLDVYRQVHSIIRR

T6: human VEGF-D (human, UniProt O43915 93-201)
T6 construct: also called hVEGF-D
T6 sequence (looked up): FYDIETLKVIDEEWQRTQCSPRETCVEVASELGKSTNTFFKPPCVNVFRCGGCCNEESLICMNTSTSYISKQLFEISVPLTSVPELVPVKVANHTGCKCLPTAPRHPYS

T7: recombinant human VEGF121 (human, UniProt P15692-9 27-147)
T7 construct: also called rhVEGF121; hVEGF121
T7 sequence (looked up): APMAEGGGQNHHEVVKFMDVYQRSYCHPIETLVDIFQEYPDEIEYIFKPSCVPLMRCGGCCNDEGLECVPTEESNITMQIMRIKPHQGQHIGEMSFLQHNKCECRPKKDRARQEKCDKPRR

T8: recombinant mouse VEGF164 (mouse, UniProt Q00731-2 27-190)
T8 construct: biotinylated in the mVEGFR2 AlphaScreen; also called rmVEGF164; mVEGF164
T8 sequence (looked up): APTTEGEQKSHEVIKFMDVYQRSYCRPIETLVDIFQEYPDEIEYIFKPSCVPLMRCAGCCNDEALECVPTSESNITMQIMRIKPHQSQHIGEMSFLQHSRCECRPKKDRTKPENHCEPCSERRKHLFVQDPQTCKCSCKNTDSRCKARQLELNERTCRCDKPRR


How the values were obtained:
hAng2 [1] = target: T1, hAng2; test: competition ELISA, blocking of hAng2 binding to hTie2
mAng2 [2] = target: T2, mAng2; test: competition ELISA, blocking of mAng2 binding to mTie2
cAng2 = target: T9, cAng2 (cynomolgus monkey); test: competition ELISA, blocking of cAng2 binding to cTie2
T9 construct: also called cyno Ang2

human PIGF = target: T3, human PIGF; test: solid phase binding ELISA
Method: (§1) Binding to VEGFB, VEGFC, VEGFD and PIGF is assessed via a solid phase binding ELISA. In brief, VEGFB, VEGFC, VEGFD and PIGF (R&D Systems, Minneapolis, Minn., USA) are coated overnight at 4° C. at 1 μg/mL in a 96-well MaxiSorp plate (Nunc, Wiesbaden, Germany). Wells are blocked with a casein solution (1% in PBS). […] As positive controls serial dilutions of the appropriate receptors are taken along and detected with horseradish peroxidase (HRP)-conjugated goat anti-human IgG, Fc specific antibody (Jackson Immuno Research Laboratories Inc., West Grove, Pa., USA) and a subsequent enzymatic reaction in the presence of the substrate TMB (3,3′,5,5′-tetramentylbenzidine) (Pierce, Rockford, Ill., USA).

human VEGF-B = target: T4, human VEGF-B; test: solid phase binding ELISA
Method: as §1

human VEGF-C = target: T5, human VEGF-C; test: solid phase binding ELISA
Method: as §1

human VEGF-D = target: T6, human VEGF-D; test: solid phase binding ELISA
Method: as §1

VEGF = test: cell-based or functional assay
[3] = target: T10, recombinant human VEGF165 (human, UniProt P15692-4 27-191); test: binding ELISA, coated rhVEGF165
T10 construct: also called hVEGF165; rhVEGF165

[4] = target: T7, recombinant human VEGF121; test: binding ELISA, coated rhVEGF121
Method: Binding to recombinant human VEGF121 is assessed via a solid phase binding ELISA. Briefly, recombinant human VEGF121 (R&D Systems, Minneapolis, Minn., USA) is coated overnight at 4° C. at 1 μg/mL in a 96-well MaxiSorp plate (Nunc, Wiesbaden, Germany). Wells are blocked with a casein solution (1% in PBS).

[5] = target: T8, recombinant mouse VEGF164; test: binding ELISA, coated rmVEGF164
Method: Cross-reactivity to mouse VEGF164 is determined using a binding ELISA. […] Wells are blocked with a casein solution (1% in PBS). […] A mouse VEGF164 reactive mAb is included as positive control.

[6] = target: T10, recombinant human VEGF165; test: hVEGF165/hVEGFR2-Fc competition ELISA
[7] = target: T10, recombinant human VEGF165; test: hVEGF165/hVEGFR1-Fc competition ELISA
[8] = target: T10, recombinant human VEGF165; test: hVEGF165/hVEGFR2-Fc competition AlphaScreen
Method: (§2) Finally, streptavidin donor beads (20 μg/ml) are added and after 1 hour of incubation in the dark, fluorescence is measured on the Envision microplate reader.

[9] = target: T10, recombinant human VEGF165; test: hVEGF165/hVEGFR1-Fc competition AlphaScreen
Method: as §2

[10] = target: T10, recombinant human VEGF165; test: Biacore, periplasmic extract on hVEGF165 chip
Method: (§3) Dissociation rates of inhibitory VHHs are analyzed on Biacore (Biacore T100 instrument, GE Healthcare). HBS-EP+ buffer is used as running buffer and experiments are performed at 25° C. […] After immobilization, surfaces are deactivated with 10 min injection of 1M ethanolamine pH8.5. A reference surface is activated and deactivated with respectively EDC/NHS and ethanolamine. Periplasmic extracts of VHHs are injected at a 10-fold dilution in running buffer for 2 min at 45 μl/min and allowed to dissociate for 10 or 15 min. Between different samples, the surfaces are regenerated with regeneration buffer. Data are double referenced by subtraction of the curves on the reference channel and of a blank running buffer injection. […] is evaluated by fitting a two phase decay model in the Biacore T100 Evaluation software v2.0.1.
Target sequence in this assay (P15692 other isoform, or with tags, fused parts or gaps limits assumed): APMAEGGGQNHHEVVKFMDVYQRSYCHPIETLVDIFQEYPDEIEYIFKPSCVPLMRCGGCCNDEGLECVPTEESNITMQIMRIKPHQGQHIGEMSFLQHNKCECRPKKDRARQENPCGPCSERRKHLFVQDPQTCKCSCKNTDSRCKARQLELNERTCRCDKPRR

[11] = target: T10, recombinant human VEGF165; test: SPR Biacore T100, hVEGF165 on chip, Two State Reaction model
Method: (§4) Samples are injected for 2 min and allowed to dissociate up to 20 min at a flow rate of 45 μI/min. In between sample injections, the chip surface is regenerated with 100 mM HCl. HBS-EP+(Hepes buffer pH7.4+EDTA) is used as running buffer. Binding curves are fitted using a Two State Reaction model by Biacore T100 Evaluation Software v2.0.1.
(§5) ^{(a)}Heterogeneous binding curve resulting in no 1:1 fit, curves are fitted using a Two State Reaction model by Biacore T100 Evaluation Software v2.0.1

[12] = target: T10, recombinant human VEGF165; test: ka1; SPR Biacore T100, hVEGF165 on chip, Two State Reaction model
Method: as §4, §5

[13] = target: T10, recombinant human VEGF165; test: kd1; SPR Biacore T100, hVEGF165 on chip, Two State Reaction model
Method: as §4, §5

[14] = target: T10, recombinant human VEGF165; test: Biacore, periplasmic extract on hVEGF165 chip, two phase decay fit
Method: as §3
Target sequence in this assay (P15692 other isoform, or with tags, fused parts or gaps limits assumed): as above

hAng2 [15] = target: T1, hAng2; test: competition ELISA, blocking of hAng2 binding to hTie2
mAng2 [16] = target: T2, mAng2; test: competition ELISA, blocking of mAng2 binding to mTie2

Binder | binding result (human PIGF) | binding result (human VEGF-B) | binding result (human VEGF-C) | binding result (human VEGF-D) | % inhibition, VEGF HUVEC proliferation assay (VEGF) | IC50 (nM), VEGF HUVEC proliferation assay (VEGF) | EC50 [3] | EC50 [4] | binding result [5] | % inhibition [6] | IC50 [6] | % inhibition [7] | IC50 [7] | % inhibition [8] | IC50 [8] | % inhibition [9] | IC50 [9] | Binding level (RU) [10] | Kd [11] | kd2 [11] | also measured
1D01 (VHH, also called 01D01) VHH: EVQLVESGGGLVQAGGSLRLSCAASGFTFDDYALGWFRQAAGKEREGVSCIRCSDGSTYYADSVKGRFTISSDNAKNTVYLQMNSLKPEDTAVYYCAASIVPRSKLEPYEYDAWGQGTQVTVSS | – | – | – | – | – | – | – | – | – | – | – | – | – | – | – | – | – | – | – | – | IC50 (read off the curve) (hAng2 [1]): ~10 nM; IC50 (read off the curve) (mAng2 [2]): ~20 nM; IC50 (read off the curve) (cAng2): ~8 nM
ANGBII00005 (VHH, homodimeric anti-Ang2 VHH; also called 00027-40gs-00027) bivalent VHH: EVQLVESGGGLVQAGGSLRLSCAASGFTLDDYAIGWFRQAPGKEREGVSSIRDNDGSTYYADSVKGRFTISSDNDKNTVYLQMNSLKPEDTAVYYCAAVPAGRLRFGEQWYPLYEYDAWGQGTLVTVSSGGGGSGGGGSGGGGSGGGGSGGGGSGGGGSGGGGSGGGGSEVQLVESGGGLVQAGGSLRLSCAASGFTLDDYAIGWFRQAPGKEREGVSSIRDNDGSTYYADSVKGRFTISSDNDKNTVYLQMNSLKPEDTAVYYCAAVPAGRLRFGEQWYPLYEYDAWGQGTLVTVSS | – | – | – | – | – | – | – | – | – | – | – | – | – | – | – | – | – | – | – | – | IC50 (read off the curve) (hAng2 [15]): ~0.01 nM; IC50 (read off the curve) (mAng2 [16]): ~0.03 nM

More lines, main results first:

binding result (human PIGF) | binding result (human VEGF-B) | binding result (human VEGF-C) | binding result (human VEGF-D) | % inhibition, VEGF HUVEC proliferation assay (VEGF) | IC50 (nM), VEGF HUVEC proliferation assay (VEGF) | EC50 [3] | EC50 [4] | binding result [5] | % inhibition [6] | IC50 [6] | % inhibition [7] | IC50 [7] | % inhibition [8] | IC50 [8] | % inhibition [9] | IC50 [9] | Binding level (RU) [10] | Kd [11] | kd2 [11] | Binder | also measured
no binding (tested: 500 nM-32 pM) | no binding (tested: 500 nM-32 pM) | no binding (tested: 500 nM-32 pM) | no binding (tested: 500 nM-32 pM) | 73% | 4.29 nM | 0.531 nM | 0.928 nM | no binding (tested: 500 nM-32 pM) | 100% | 3 nM | 55% | 0.9 nM | 100% | 0.25 nM | 46% | 0.4 nM | 547 RU | 0.7 nM | 0.0001 s⁻¹ | VEGFBII23A06 (VHH, also called 23A6; VEGFBII23A6) VHH: EVQLVESGGGLVQPGDSLKLSCAFSGRTFSSYSMGWFRQAQGKEREFVVAISSGGFIYDAVSLEGRFTISRDNTKNTVYLQTPSLKPEDTAVYYCAASRAYGSSRLRLADTYDYWGQGTQVTVSS | kon [12]: 420000 M⁻¹ s⁻¹; koff [13]: 0.057 s⁻¹; % fast [14]: 13%
no binding (tested: 500 nM-32 pM) | no binding (tested: 500 nM-32 pM) | no binding (tested: 500 nM-32 pM) | no binding (tested: 500 nM-32 pM) | 79% | 3.8 nM | 0.453 nM | 0.792 nM | no binding (tested: 500 nM-32 pM) | 100% | 2.5 nM | 71% | 0.8 nM | 100% | 0.25 nM | 53% | 0.2 nM | 456 RU | 0.4 nM | 9.6e-05 s⁻¹ | VEGFBII24C04 (VHH, also called VEGFBII24C4) VHH: EVQLVESGGGLVQPGDSLKLSCVASGRTSSSYSMGWFRQAQGKEREFVVAISSGGYIYDSVSLQGRFTISRDNTKNTVYLQTPSLKPEDTAVYYCAASRAYGSSRLRLADTYDYWGQGTQVTVSS | kon [12]: 320000 M⁻¹ s⁻¹; koff [13]: 0.026 s⁻¹; % fast [14]: 17%
